The data set has as its target T1, SSBP1 Arg91Gln R91Q (Homo sapiens) (UniProt Q04837).
T1 sequence: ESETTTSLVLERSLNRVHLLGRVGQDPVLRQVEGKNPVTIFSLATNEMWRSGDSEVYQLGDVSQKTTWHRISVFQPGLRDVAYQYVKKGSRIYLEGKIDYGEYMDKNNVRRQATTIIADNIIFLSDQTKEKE
In words: EMSA. To be noted: 50 mM Tris pH 7.5, 150 mM NaCl, 10% glycerol, 30 min at room temperature; 2% agarose gel in 1x TBE.

For one sequence, Kd results are on record in PMC11299580, “Discovery of novel disease-causing mutation in SSBP1 and its correction using adenine base editor to improve mitochondrial function” (Molecular Therapy. Nucleic Acids, 2023).

Take “GGACTATTTATTCAATATATTTAAGAACTAATTCCAGCTGAGCGCCGG [EMSA ssDNA probe]”: the Kd was 20.2 nM. This lies in the double-digit nanomolar range.
